Among the data in patent publication US20150140683A1 are response units values, retold here.

In experiment [1] the target is antibody captured on the human Fab capture surface (unnamed IgG). The experiment is described as follows: SPR (BIAcore), antibody captured via human Fab capture kit, 50 nM receptor injected, 25 C. (In general: SPR reads the build-up and loss of mass on a sensor chip optically.)
Experiment [2] has the same target. Briefly: SPR (BIAcore), antibody captured via human Fab capture kit, 50 nM fusion polypeptide injected, 25 C.

With “FcgammaRIIIaV158 (intact HisAvi-tag comprising functional variant of FcgRIIIa) (receptor)”, the response units in experiment [1] came to 40 RU.

As to “FcgammaRIIIaV158-Avi-IgA Protease-Fc LALA P329G fusion polypeptide (Fc fusion)”, in experiment [2], the response units was more than 100 RU.
